Experimental data: PMC10786891, “Massively parallel profiling of RNA-targeting CRISPR-Cas13d”

Target: T1, EsCas13d, nuclease-dead (Eubacterium siraeum, UniProt B0MS50, R295A;H300A;R849A;H854A)
T1 sequence: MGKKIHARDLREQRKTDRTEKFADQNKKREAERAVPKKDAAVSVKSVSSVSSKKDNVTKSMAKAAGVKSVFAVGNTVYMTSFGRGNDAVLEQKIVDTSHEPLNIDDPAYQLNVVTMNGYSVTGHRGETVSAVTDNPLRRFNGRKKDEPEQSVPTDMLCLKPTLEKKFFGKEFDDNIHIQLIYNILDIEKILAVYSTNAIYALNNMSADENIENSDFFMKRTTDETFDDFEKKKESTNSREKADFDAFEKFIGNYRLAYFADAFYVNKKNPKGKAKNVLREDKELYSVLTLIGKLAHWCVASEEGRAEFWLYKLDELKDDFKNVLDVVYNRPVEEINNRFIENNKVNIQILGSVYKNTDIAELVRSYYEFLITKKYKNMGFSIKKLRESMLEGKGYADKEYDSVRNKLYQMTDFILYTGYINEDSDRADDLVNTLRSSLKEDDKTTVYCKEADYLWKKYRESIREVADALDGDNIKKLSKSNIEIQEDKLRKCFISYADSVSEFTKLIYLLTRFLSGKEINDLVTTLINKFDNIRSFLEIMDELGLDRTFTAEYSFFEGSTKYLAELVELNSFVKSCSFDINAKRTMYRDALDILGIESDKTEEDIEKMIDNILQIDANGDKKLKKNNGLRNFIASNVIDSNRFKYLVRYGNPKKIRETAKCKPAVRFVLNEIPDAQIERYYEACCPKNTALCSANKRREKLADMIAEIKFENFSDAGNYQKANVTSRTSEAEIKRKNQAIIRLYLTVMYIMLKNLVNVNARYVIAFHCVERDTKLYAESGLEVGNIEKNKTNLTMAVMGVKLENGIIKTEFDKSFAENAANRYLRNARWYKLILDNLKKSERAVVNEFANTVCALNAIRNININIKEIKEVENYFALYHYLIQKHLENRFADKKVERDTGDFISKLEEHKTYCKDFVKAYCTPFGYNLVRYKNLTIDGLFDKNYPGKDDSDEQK
Experiment: crRNA (strand 1, pre-loaded); Mg2+; 40 mM Tris-HCl pH 7.5, 150 mM NaCl, 6 mM MgCl2, 1 mM DTT, 0.1% Tween-20, 0.2 mg/ml BSA; 25 C; 10 min per concentration, then washed
Details: tags: His6-TwinStrep-SUMO cleaved; N-terminal SNAP kept (SNAP-Surface 488); label: 3' end held by stalled T7 RNA polymerase

| Binder | Kd |
| --- | --- |
| target 2 MT 5'PFS GGA 3'PFS CAG (mixed) RNA 1: CACCCGUGCAAAAUUGCAGGGGUCUAAAACCUUCUCCAAAUUGUUUCAUCCU RNA 2: GGGAAUGGAUCCACAUCUACGAAUUCGGAAGGAUGAAACAAUUUGGAGAAGCAGAGAUCGGAAGAGCACACGU | 11.5 ± 1.5 nM |
| target 2 MT 5'PFS GCC 3'PFS CUU (mixed) RNA 1: CACCCGUGCAAAAUUGCAGGGGUCUAAAACCUUCUCCAAAUUGUUUCAUCCU RNA 2: GGGAAUGGAUCCACAUCUACGAAUUCGCCAGGAUGAAACAAUUUGGAGAAGCUUAGAUCGGAAGAGCACACGU | 10.5 ± 1.9 nM |
| target 2 MT 5'PFS GCC 3'PFS CUC (mixed) RNA 1: CACCCGUGCAAAAUUGCAGGGGUCUAAAACCUUCUCCAAAUUGUUUCAUCCU RNA 2: GGGAAUGGAUCCACAUCUACGAAUUCGCCAGGAUGAAACAAUUUGGAGAAGCUCAGAUCGGAAGAGCACACGU | 18.3 ± 2.3 nM |
| target 2 MT 5'PFS GAU 3'PFS CUA (mixed) RNA 1: CACCCGUGCAAAAUUGCAGGGGUCUAAAACCUUCUCCAAAUUGUUUCAUCCU RNA 2: GGGAAUGGAUCCACAUCUACGAAUUCGAUAGGAUGAAACAAUUUGGAGAAGCUAAGAUCGGAAGAGCACACGU | 11.9 ± 1.7 nM |
| target 2 MT 5'PFS AAC 3'PFS UCA (mixed) RNA 1: CACCCGUGCAAAAUUGCAGGGGUCUAAAACCUUCUCCAAAUUGUUUCAUCCU RNA 2: GGGAAUGGAUCCACAUCUACGAAUUCAACAGGAUGAAACAAUUUGGAGAAGUCAAGAUCGGAAGAGCACACGU | 9.3 ± 2.5 nM |
| target 2 MT 5'PFS GGA 3'PFS CAU (mixed) RNA 1: CACCCGUGCAAAAUUGCAGGGGUCUAAAACCUUCUCCAAAUUGUUUCAUCCU RNA 2: GGGAAUGGAUCCACAUCUACGAAUUCGGAAGGAUGAAACAAUUUGGAGAAGCAUAGAUCGGAAGAGCACACGU | 9.1 ± 1.1 nM |
| target 2 MT 5'PFS AUG 3'PFS AUC (mixed) RNA 1: CACCCGUGCAAAAUUGCAGGGGUCUAAAACCUUCUCCAAAUUGUUUCAUCCU RNA 2: GGGAAUGGAUCCACAUCUACGAAUUCAUGAGGAUGAAACAAUUUGGAGAAGAUCAGAUCGGAAGAGCACACGU | 9.3 ± 1.6 nM |
| target 2 MT 5'PFS GGA 3'PFS CAA (mixed) RNA 1: CACCCGUGCAAAAUUGCAGGGGUCUAAAACCUUCUCCAAAUUGUUUCAUCCU RNA 2: GGGAAUGGAUCCACAUCUACGAAUUCGGAAGGAUGAAACAAUUUGGAGAAGCAAAGAUCGGAAGAGCACACGU | 6.7 ± 1.2 nM |
| target 2 MT 5'PFS UAG 3'PFS UCA (mixed) RNA 1: CACCCGUGCAAAAUUGCAGGGGUCUAAAACCUUCUCCAAAUUGUUUCAUCCU RNA 2: GGGAAUGGAUCCACAUCUACGAAUUCUAGAGGAUGAAACAAUUUGGAGAAGUCAAGAUCGGAAGAGCACACGU | 4.8 ± 0.7 nM |
| target 2 MT 5'PFS GAU 3'PFS CUG (mixed) RNA 1: CACCCGUGCAAAAUUGCAGGGGUCUAAAACCUUCUCCAAAUUGUUUCAUCCU RNA 2: GGGAAUGGAUCCACAUCUACGAAUUCGAUAGGAUGAAACAAUUUGGAGAAGCUGAGAUCGGAAGAGCACACGU | 14.9 ± 2 nM |
| target 2 MT 5'PFS UCG 3'PFS CCA (mixed) RNA 1: CACCCGUGCAAAAUUGCAGGGGUCUAAAACCUUCUCCAAAUUGUUUCAUCCU RNA 2: GGGAAUGGAUCCACAUCUACGAAUUCUCGAGGAUGAAACAAUUUGGAGAAGCCAAGAUCGGAAGAGCACACGU | 31 ± 11 nM |
| target 2 MT 5'PFS GGG 3'PFS CAU (mixed) RNA 1: CACCCGUGCAAAAUUGCAGGGGUCUAAAACCUUCUCCAAAUUGUUUCAUCCU RNA 2: GGGAAUGGAUCCACAUCUACGAAUUCGGGAGGAUGAAACAAUUUGGAGAAGCAUAGAUCGGAAGAGCACACGU | 8 ± 0.8 nM |
| target 2 MT 5'PFS GAU 3'PFS CUC (mixed) RNA 1: CACCCGUGCAAAAUUGCAGGGGUCUAAAACCUUCUCCAAAUUGUUUCAUCCU RNA 2: GGGAAUGGAUCCACAUCUACGAAUUCGAUAGGAUGAAACAAUUUGGAGAAGCUCAGAUCGGAAGAGCACACGU | 17.8 ± 2.4 nM |
| target 2 MT 5'PFS GGG 3'PFS CAA (mixed) RNA 1: CACCCGUGCAAAAUUGCAGGGGUCUAAAACCUUCUCCAAAUUGUUUCAUCCU RNA 2: GGGAAUGGAUCCACAUCUACGAAUUCGGGAGGAUGAAACAAUUUGGAGAAGCAAAGAUCGGAAGAGCACACGU | 4.9 ± 0.5 nM |
| target 2 MT 5'PFS GCC 3'PFS CUG (mixed) RNA 1: CACCCGUGCAAAAUUGCAGGGGUCUAAAACCUUCUCCAAAUUGUUUCAUCCU RNA 2: GGGAAUGGAUCCACAUCUACGAAUUCGCCAGGAUGAAACAAUUUGGAGAAGCUGAGAUCGGAAGAGCACACGU | 12.7 ± 2.1 nM |
| target 2 MT 5'PFS GAU 3'PFS CUU (mixed) RNA 1: CACCCGUGCAAAAUUGCAGGGGUCUAAAACCUUCUCCAAAUUGUUUCAUCCU RNA 2: GGGAAUGGAUCCACAUCUACGAAUUCGAUAGGAUGAAACAAUUUGGAGAAGCUUAGAUCGGAAGAGCACACGU | 22 ± 4 nM |
| target 2 MT 5'PFS GGA 3'PFS CAC (mixed) RNA 1: CACCCGUGCAAAAUUGCAGGGGUCUAAAACCUUCUCCAAAUUGUUUCAUCCU RNA 2: GGGAAUGGAUCCACAUCUACGAAUUCGGAAGGAUGAAACAAUUUGGAGAAGCACAGAUCGGAAGAGCACACGU | 9.4 ± 1 nM |
| target 2 MT 5'PFS GGG 3'PFS CAG (mixed) RNA 1: CACCCGUGCAAAAUUGCAGGGGUCUAAAACCUUCUCCAAAUUGUUUCAUCCU RNA 2: GGGAAUGGAUCCACAUCUACGAAUUCGGGAGGAUGAAACAAUUUGGAGAAGCAGAGAUCGGAAGAGCACACGU | 9 ± 0.8 nM |
| target 2 MT 5'PFS AUG 3'PFS AUA (mixed) RNA 1: CACCCGUGCAAAAUUGCAGGGGUCUAAAACCUUCUCCAAAUUGUUUCAUCCU RNA 2: GGGAAUGGAUCCACAUCUACGAAUUCAUGAGGAUGAAACAAUUUGGAGAAGAUAAGAUCGGAAGAGCACACGU | 9 ± 1.1 nM |
| target 2 MT 5'PFS UAG 3'PFS UCU (mixed) RNA 1: CACCCGUGCAAAAUUGCAGGGGUCUAAAACCUUCUCCAAAUUGUUUCAUCCU RNA 2: GGGAAUGGAUCCACAUCUACGAAUUCUAGAGGAUGAAACAAUUUGGAGAAGUCUAGAUCGGAAGAGCACACGU | 38 ± 10 nM |
| target 2 MT 5'PFS GGG 3'PFS CAC (mixed) RNA 1: CACCCGUGCAAAAUUGCAGGGGUCUAAAACCUUCUCCAAAUUGUUUCAUCCU RNA 2: GGGAAUGGAUCCACAUCUACGAAUUCGGGAGGAUGAAACAAUUUGGAGAAGCACAGAUCGGAAGAGCACACGU | 9.4 ± 1 nM |
| target 2 MT 5'PFS AUG 3'PFS AUU (mixed) RNA 1: CACCCGUGCAAAAUUGCAGGGGUCUAAAACCUUCUCCAAAUUGUUUCAUCCU RNA 2: GGGAAUGGAUCCACAUCUACGAAUUCAUGAGGAUGAAACAAUUUGGAGAAGAUUAGAUCGGAAGAGCACACGU | 9.9 ± 1.2 nM |
| target 2 MT 5'PFS AAC 3'PFS UCU (mixed) RNA 1: CACCCGUGCAAAAUUGCAGGGGUCUAAAACCUUCUCCAAAUUGUUUCAUCCU RNA 2: GGGAAUGGAUCCACAUCUACGAAUUCAACAGGAUGAAACAAUUUGGAGAAGUCUAGAUCGGAAGAGCACACGU | 14 ± 4 nM |
| target 1 insG 3' of 9,insA 3' of 6 (mixed) RNA 1: CACCCGUGCAAAAAUGCAGGGGUCUAAAACUGAGCGGAUAACCUCUCUAUGG RNA 2: GGGAAUGGAUCCACAUCUACGAAUUCGUACCAUAGAGAGGUUAGUCCAGCUCACCGAGAUCGGAAGAGCACACGU | 13.4 ± 0.7 nM |
| target 1 C6G,U8C (mixed) RNA 1: CACCCGUGCAAAAAUGCAGGGGUCUAAAACUGAGCGGAUAACCUCUCUAUGG RNA 2: GGGAAUGGAUCCACAUCUACGAAUUCGUACCAUAGAGAGGUUACCGGCUCACCGAGAUCGGAAGAGCACACGU | 11.9 ± 0.6 nM |
| target 1 del3,del11 (mixed) RNA 1: CACCCGUGCAAAAAUGCAGGGGUCUAAAACUGAGCGGAUAACCUCUCUAUGG RNA 2: GGGAAUGGAUCCACAUCUACGAAUUCGUACCAUAGAGAGGUAUCCGCCACCGAGAUCGGAAGAGCACACGU | 66 ± 16 nM |
| target 1 C2U,A14C (mixed) RNA 1: CACCCGUGCAAAAAUGCAGGGGUCUAAAACUGAGCGGAUAACCUCUCUAUGG RNA 2: GGGAAUGGAUCCACAUCUACGAAUUCGUACCAUAGAGCGGUUAUCCGCUUACCGAGAUCGGAAGAGCACACGU | 80 ± 13 nM |
| target 1 A14G (mixed) RNA 1: CACCCGUGCAAAAAUGCAGGGGUCUAAAACUGAGCGGAUAACCUCUCUAUGG RNA 2: GGGAAUGGAUCCACAUCUACGAAUUCGUACCAUAGAGGGGUUAUCCGCUCACCGAGAUCGGAAGAGCACACGU | 13.9 ± 0.7 nM |
